Columns and labels:
[1] = molecular target: T1, interferon receptors on Daudi cells and A549 cells (Homo sapiens (Human)) (UniProt P17181)
T1 sequence 1: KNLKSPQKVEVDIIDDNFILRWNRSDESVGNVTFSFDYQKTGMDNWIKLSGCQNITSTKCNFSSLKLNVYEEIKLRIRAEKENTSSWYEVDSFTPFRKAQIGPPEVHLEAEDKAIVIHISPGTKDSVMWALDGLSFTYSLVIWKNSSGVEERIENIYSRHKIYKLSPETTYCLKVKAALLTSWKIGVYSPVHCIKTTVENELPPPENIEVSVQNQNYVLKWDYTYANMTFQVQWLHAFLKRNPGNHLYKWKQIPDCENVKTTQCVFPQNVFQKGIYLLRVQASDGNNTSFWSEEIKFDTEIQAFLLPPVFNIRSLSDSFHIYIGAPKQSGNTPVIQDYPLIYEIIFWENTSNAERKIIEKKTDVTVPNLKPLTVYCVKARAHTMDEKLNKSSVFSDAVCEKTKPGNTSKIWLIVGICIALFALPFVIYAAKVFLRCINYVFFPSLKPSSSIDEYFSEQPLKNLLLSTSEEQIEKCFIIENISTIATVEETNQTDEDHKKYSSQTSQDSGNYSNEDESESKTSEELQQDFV
T1 sequence 2: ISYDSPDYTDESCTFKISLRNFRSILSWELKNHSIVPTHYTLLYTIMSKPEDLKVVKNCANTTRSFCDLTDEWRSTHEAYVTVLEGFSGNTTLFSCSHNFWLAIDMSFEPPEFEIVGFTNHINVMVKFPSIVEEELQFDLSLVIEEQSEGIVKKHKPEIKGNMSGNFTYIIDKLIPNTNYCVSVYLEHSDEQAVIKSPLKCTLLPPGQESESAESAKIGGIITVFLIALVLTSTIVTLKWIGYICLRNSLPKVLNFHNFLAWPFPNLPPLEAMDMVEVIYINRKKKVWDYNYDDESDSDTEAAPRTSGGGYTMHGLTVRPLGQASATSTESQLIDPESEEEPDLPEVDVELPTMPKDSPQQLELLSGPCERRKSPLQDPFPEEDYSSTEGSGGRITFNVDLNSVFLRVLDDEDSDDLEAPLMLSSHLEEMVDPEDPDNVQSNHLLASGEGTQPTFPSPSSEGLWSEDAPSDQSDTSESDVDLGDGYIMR

[2] = molecular target: T1, interferon receptors on Daudi cells and A549 cells (Homo sapiens (Human)); remark: listed apart in the source

Row | Molecule | specific activity in the Cytopathic Effect (CPE) assay for antiviral activity (EMC virus) [1] | specific activity in the antiviral assay relative to recombinant wild type IFN-β [2] [fold]
1 | wild type recombinant IFN-β (ligand) | 2e+08 units/mg | 
2 | IFN-β(phe101) (ligand, 125I label (chloramine T method) where used as the labelled ligand in the receptor binding assay; unlabelled as competitor and in the antiviral assays) MSYNLLGFLQRSSNFQCQKLLWQLNGRLEYCLKDRMNFDIPEEIKQLQQFQKEDAALTIYEMLQNIFAIFRQDSSSTGWNETIVENLLANVYHQINHLKTFLEEKLEKEDFTRGKLMSSLHLKRYYGRILHYLKAKEYSHCAWTIVRVEILRNFYFINRLTGYLRN | 4.8e+08 U/mg | 2.5

Source: patent US6127332
